Assays:
EGFR-mFc = EGFR-mFc (Homo sapiens, UniProt P00533); experiment: SPR (BIACORE) binding kinetics, receptor-capture format; conditions: 37° C., EGFR-mFc captured, NB=no binding
Description: (§1) Measurements were conducted on a T100 BIACORE™ instrument. […] In the receptor-capture format, either EGFRvIII-mFc or EGFR-mFc, was captured on the BIACORE™ chip and the respective antibodies flowed over. Kinetic association (ka) and dissociation (kd) rate constants were determined by processing and fitting the data to a 1:1 binding model using Scrubber 2.0 curve fitting software. Binding dissociation equilibrium constants (KD) and dissociative half-lives (t1/2) were calculated from the kinetic rate constants as: KD (M)=kd/ka; and t1/2 (min)=ln 2/(60*kd).

EGFRvIII-mFc = format: binding, human
Description: as §1

HEK293 cells = experiment: FACS cell binding selectivity; format: cell-based; conditions: directly labeled (ALEXA FLUOR 488) antibodies, 10 μg/ml
Description: To determine the specificity of the anti-EGFRvIII mAbs, their binding to HEK293, HEK293 cells expressing EGFRvIII (HEK293/EGFRvIII) and A431 cells, was analyzed by fluorescence activated cell sorting (FACS). HEK293/EGFRvIII cells were prepared by transfecting HEK293 cells with neomycin resistant DNA vectors constitutively expressing full-length hEGFRvIII (SEQ ID NO:147) using LIPOFECTAMINE™ 2000 transfection reagent (INVITROGEN™). At two days post-transfection, cells were placed under G418 selection for approximately two weeks. Populations positively expressing EGFRvIII were isolated via fluorescence activated cell sorting (FACS). The HEK293 cells expressing ˜3×10^6 copies of EGFRvIII per cell were used in the experiment. Briefly, the anti-EGFRvIII antibodies at 10 μg/ml were incubated with cells for 30 minutes at room temperature, washed, incubated with secondary antibody, i.e., phycoerythrin (PE)-labeled goat F(ab′)2 against human IgG (cat #109-116-170, Jackson ImmunoResearch Laboratories), followed by a final wash before FACS analysis. In another set of experiment, anti-EGFRvIII antibodies were directly conjugated via their lysine residues with the fluorescent dye, ALEXA FLUOR® 488 Dye (INVITROGEN™), thereby eliminating the step using the secondary antibody. […] Controls I, II, III, IV and V are described above. MFI: Mean Fluorescence Intensity.

Control peptide = experiment: Antibody specificity by ELISA; conditions: ELISA binding, irrelevant peptide
Description: (§2) To further characterize anti-hEGFRvIII mAbs, their binding specificity was examined by ELISA. […] For the junctional peptides that were linked to biotin either at C-terminal (SEQ ID NO:149) or N-terminal (SEQ ID NO:150) via a linker, plates were pre-coated with avidin. Also, coated was an irrelevant peptide (control peptide) with or without biotin at its N-terminal. Anti-EGFRvIII antibodies as well as an isotype control antibody were added to coated plates and allowed to incubate for 1 hour at 25° C. The plates were then washed and bound anti-EGFRvIII mAbs were detected with anti-human Fc antibodies conjugated with horse-radish peroxidase (HRP). Plates were developed with a tetra-methyl-benzidine (TMB) substrate solution to produce a colorimetric reaction and neutralized with sulfuric acid before reading absorbance at 450 nm on a VICTOR™ X5 plate reader. Data analysis used a sigmoidal dose-response model within PRISM™ software. […] NT: Not tested. Controls I-III: As described above.

[1] = test system: N-term Biotin control peptide; experiment: Antibody specificity by ELISA; conditions: ELISA binding, irrelevant peptide with N-terminal biotin
Description: as §2

EGFRvIII-mmh = EGFRvIII-mmh (Homo sapiens, UniProt P00533, DELINS30-297G); experiment: Antibody specificity by ELISA; conditions: ELISA binding, plate coated with EGFRvIII-mmh
Description: (§3) To further characterize anti-hEGFRvIII mAbs, their binding specificity was examined by ELISA. […] For the junctional peptides that were linked to biotin either at C-terminal (SEQ ID NO:149) or N-terminal (SEQ ID NO:150) via a linker, plates were pre-coated with avidin. Also, coated was an irrelevant peptide (control peptide) with or without biotin at its N-terminal. Anti-EGFRvIII antibodies as well as an isotype control antibody were added to coated plates and allowed to incubate for 1 hour at 25° C. The plates were then washed and bound anti-EGFRvIII mAbs were detected with anti-human Fc antibodies conjugated with horse-radish peroxidase (HRP). […] Data analysis used a sigmoidal dose-response model within PRISM™ software.

C-term biotin J-peptide = C-term biotin J-peptide (Homo sapiens, UniProt P00533, DELINS30-297G); experiment: Antibody specificity by ELISA; conditions: ELISA binding, avidin pre-coated plates
Description: as §3

EGFR-mmh = EGFR-mmh (Homo sapiens, UniProt P00533); experiment: Antibody specificity by ELISA; conditions: read-out: EC50 EGFR-mmh (25° C.), ELISA binding, plate coated with EGFR-mmh
Description: as §3

N-term biotin J-peptide = N-term biotin J-peptide (Homo sapiens, UniProt P00533, DELINS30-297G); experiment: Antibody specificity by ELISA; conditions: ELISA binding, avidin pre-coated plates
Description: as §3

[2] = target: junctional peptide (J-peptide) (Homo sapiens, UniProt P00533, DELINS30-297G); experiment: Antibody specificity by ELISA; conditions: ELISA binding
Description: as §3

[3] = 37° C., receptor-capture, EGFRvIII-mFc captured

B1: H1H1915N: human IgG1 Fc anti-EGFRvIII antibody with variable domains 1915; HCVR/LCVR SEQ ID NOs 82/90 (antibody, V domains shown)
VH: QVQLVESGGGVVQPGRSLRLSCAASGFTFSAYAMHWVRQAPGKGLEWVAVIWYDGSNKNYADSVKGRFTVSRDNSKNTLYLEMNSLRAEDTAVYYCARDLMVGVTNYWGQGTLVTVST
VL: DVVMTQSPLSLPVALGQPASISCRSSQSLVYTDGNTYLNWFHQRPGQSPRRLIYKVSNRDSGVPDRFTGSGSGTDFTLKISRVEAEDVGVFYCMQGSHWPPYTFGQGTKLEIK
modifications: human IgG1 Fc
- ka (EGFR-mFc): 43500 M⁻¹ s⁻¹
- kd (EGFR-mFc): 0.00801 s⁻¹
- ka (EGFRvIII-mFc; [3]): 100000 M⁻¹ s⁻¹
- kd (EGFRvIII-mFc; [3]): 0.000328 s⁻¹
- selectivity for EGFRvIII over wild-type EGFR (EGFRvIII-mFc; receptor capture format (Table 4)): greatest selectivity
- Parental HEK293 MFI (HEK293 cells): 3461
- EC50 (Control peptide): > 10 nM
- EC50 [1]: > 10 nM
- EC50 EGFRvIII-mmh (25° C.) (EGFRvIII-mmh): strong binding
- EC50 (C-term biotin J-peptide): > 10 nM
- EC50 (EGFR-mmh): > 10 nM
- EC50 (N-term biotin J-peptide): > 10 nM
- EC50 [2]: > 10 nM

From US11608380B2, “Anti-EGFRvIII antibodies and uses thereof” (REGENERON PHARMACEUTICALS, INC., priority 2014, dated 2023)
